# Experimental data from US20220235140A1 (HEDGEHOG, published 2022).
# T1: human endothelin receptor type A (human, UniProt P25101 21-427, limits assumed)
# T1 construct: Immobilized on plates coated with human Galpha-i3 such that its extracellular regions were selectively exposed; also called ETA
# T1 sequence (looked up): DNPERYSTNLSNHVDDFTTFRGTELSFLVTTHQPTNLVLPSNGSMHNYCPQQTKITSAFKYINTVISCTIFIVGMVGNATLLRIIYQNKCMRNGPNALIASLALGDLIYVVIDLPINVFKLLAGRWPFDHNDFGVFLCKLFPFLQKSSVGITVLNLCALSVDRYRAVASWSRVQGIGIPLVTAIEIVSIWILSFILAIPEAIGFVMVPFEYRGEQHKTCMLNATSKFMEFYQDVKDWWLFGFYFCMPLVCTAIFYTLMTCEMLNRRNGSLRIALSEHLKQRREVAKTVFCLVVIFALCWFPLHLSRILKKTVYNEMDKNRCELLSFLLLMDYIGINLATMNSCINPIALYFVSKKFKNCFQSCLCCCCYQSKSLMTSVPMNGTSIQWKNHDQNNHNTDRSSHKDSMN
# Molecular target: T1, human endothelin receptor type A
# Experiment: ELISA, ETA immobilized via human Galpha-i3, antibody titrated
binder,measurement,value
"AG8 (antibody, V domains shown) VH: EVQLVESGAEVRKPGASVKVSCKASGYTFTSSDINWIRQATGQGLEWMGYMNPKNGNTDYAQKFQGRISMTRDSSISTAYMELSSLRSEDTAVYYCAKDRYGSGTYGFGMDVWGPGTLVT VL: DIVMTQSPSAMSASVGDRVSITCRASQGINNYLAWFQQKPGKVPKRLMDVGSILQSGIPSRFRGRGSGTQFTLTISSLQAEDSGTYFCLQHNTYPLTFGPGTKVEIKR",Kd,26.1 nM
